This note sets out measurements from the nanobody polyreactivity screen of Harvey et al. (2022).

This series is described as follows: yeast display, Sf9 membrane polyspecificity reagent, FACS + sequencing; frameworks hold sequencing errors. The essentials: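 Nanobodies from a synthetic yeast display library (Saccharomyces cerevisiae BJ5465), induced 36–48 hours with galactose, were stained 1 hour at 4 °C with 10% biotinylated, detergent-solubilized Sf9 membrane reagent, enriched on streptavidin microbeads, then FACS-sorted. Anti-HA (expression) and streptavidin (reagent binding) fluorescence set low and high (top ~1%) gates. Polyreactivity labels come from the gate of origin. Genes were colony-PCR amplified, MiSeq 2 × 250 sequenced and filtered by CDR length.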
Take “QVQLVESGGCLVQAGGSLRLSCAASGRTFSRNAMGWYRQAPGKERELVAAISQRGVYTYYADSVKGRFTISRDNAKNTVYLQMNRLKPEDSAVYYCNTRGTYRYDYWGQGTQVTVSS”: the “polyreactivity (PSR sort gate)” value is given as “low polyreactivity”.
The entry for “QVQLVESGGCLVQAGGSLRLSCAASGRTFVGYVMGWSRQAPGKERELVAAIRTGGRTHYADSVKGRFTISRDNAKNTVYLQMNSLKPEDTAVYYCNARASYSWHGIRGNYDYWGQGTQVTVSS” is “high polyreactivity”.
The entry for “QVQLVESGGCLVQAGGSLRLSCAASGRTFYGNDMGWYSQAPGTERELVAAISSSGGSTYYADSVKGRGTISRDNGKNTVYLQMKSLKPEDTAVYYCNAYWRGFRLSYYEDSYYWGQGTQVTVSS” is “high polyreactivity”; for “QVQLVESGGCLVQAGGSLRLSCAASGRTFYINTMGWYRQAPGKEREFVAAIRFSSDSTYYADSVKGRYTISRDNAKNTVYLQMNSLKPEDTAVYYCATRTYAQRYGYWGQGTQVTVSS” it is “high polyreactivity”; for “QVQLVESGGCLVQAGGSLRLSCAASGRTFYTYAIGWYRQAPGQERELVAGIRTGGGSTYYADSVKGRFTISRDNAKNTVYLQMNSLKPEDTAVYYCAADTYDGYDYWGQGTQVTVSS” it is “low polyreactivity”.
The entry for “QVQLVESGGCLVQAGGSLRLSCAASGSIFNRYTMGWYRQAPGKEREFVAAISSSGTSTYYADSVKGRFTISRDNAKNTVYLQMNILKPEDTAVYYCAADWTGGFYTWYVIPYDYWGQGTQVTVSS” is “low polyreactivity”; for “QVQLVESGGCLVQAGGSLRLSCAASGSIFRRNAMGWSRQAPGKERELVAAISRTGGSTYYADSVKGRFTISRDNAKNTVYLQLNSLKPEDTAVYYCNTYSDYADDDYWGQGTQVTVSS” it is “high polyreactivity”; for “QVQLVESGGCLVQAGGSLRLSCAASGSIFSSYQMGWYRQAPGKQRELVEAISSGGSTNYADSVKGRFTISRDNAKNTVYLQMHRLKPEDTAVYYCNVDLFNWGGDSTGYDYWGQGTQVTVSS” it is “low polyreactivity”.
On to “QVQLVESGGCLVQAGGSLRLSCAASGSIIYCYAMGWYRQAPGKERELVADISRGGITYYADSVKGRFTISRDNAKNTVYLQMNSLKPEDTAVYYCSKTHYGVQRLDSWGQGTQVTVSS”, for which the “polyreactivity (PSR sort gate)” value is reported as “low polyreactivity”.
The entry for “QVQLVESGGCLVQAGGSLRLSCAASGSIMYSYAMAWYRQAPGQERELVAAITGDGASTNYADYVKGRFTISRDNAKNTVYLQMNSLKPEDTAVYYCNAGRESDDVYEGSQRIGQFDYWGQGTQVTVSS” is “low polyreactivity”.
The entry for “QVQLVESGGCLVQAGGSLRLSCAASGSTFGVNAMGWYRKAPGKERELVADISVRTDSTYYADSVKGRFTISRDNAKNTVYLQMNSLKAEDTAVYDCNAGLVIEYDYWGQGTQVSVSS” is “low polyreactivity”; for “QVQLVESGGCLVQAGGSLRLSCAASGSTFLGNAMGWYRQAPGKERELVAGITSGGTTNYADSVKGRFTISRDNAKNTVYLQMNSLKPEDTAVYYCNADVWIGQLFDPGYDFDYWGQGTQVTVSS” it is “low polyreactivity”.
In the case of “QVQLVESGGCLVQAGGSLRLSCAASGSTFPIYAMGWYRQAPGKERELVARITWNGGRTYYADSVKGRFTISRDNAKNTVYLQMNSLKPEDTAVYYCNALYYHNLEGNYWGQGTQVTVSS” it was “high polyreactivity”; in that of “QVQLVESGGCLVQAGGSLRLSCAASGSTFTPYVMGWYRHAPGKERELVAAISKRGGSTYYADSVKGRFTISRDNAKNTVYLQMNRLKPEDTAVYYCAAVQPAWGNGYWGQGTQVTVSS”, “high polyreactivity”; in that of “QVQLVESGGCLVQAGGSLRLSCAASGSTFYLNAMGWYRQAPGKEREMVAAITVSGGSTYYADSVKGRFTISRDNAKNTVYLQMNSLKPVDTAVYFCSRELLCPTYQRWYYYWGLGTQVTVSS”, “low polyreactivity”.
For the sequence “QVQLVESGGCLVQAGGSLRLSCAASGSTLGYYVMGWYRQAPGKERELFAAITGCGSTDYADSVKGRFTISRDNAKNTVYLQMNSLIPEDTAVYYCAAERTRTGQLFWWGPIYDYWGQGTQVTVSS”, the “polyreactivity (PSR sort gate)” value is on record as “low polyreactivity”.
In the case of “QVQLVESGGCLVQAGGSLRLSCAASGSTLVIYAMGWYRQAPGKESELVAAINFSDGSTSYADSVKGRFTISRDNAKNTVYLQMNSLKPEDTAVYYCAADWWYGYSNYDYWGQGTQVTVSS” it was “low polyreactivity”; in that of “QVQLVESGGCLVQAGGSLRLSCAASGYIFYGYAMGWYRQAPGKERELVAAITVRGGSTYYADSVKGRFRISRDNAKNTVYLQMNSLKPQDTAVYYCAAAPQFTFGVGYWGQGTQVTVSS”, “low polyreactivity”; in that of “QVQLVESGGCLVQAGGSLRLSCAASGYTIRYYSMGWYRQAPGKERELVAAISYSGGSTYYADSVKGRFTISRDNAKNTVYLQMNIMKPEDTAVYYCDAGFSLYLGFEYWGQGTQVTVSS”, “high polyreactivity”.
The entry for “QVQLVESGGCLVQAGGSLRLSCAATGSTLGSYAMGWYRQAPGKERELVAAITFLGGSTYYADSVKGRFTSSRDNAKNTVYLQMNSLKPEDSAVYYCAARFLRVLFNLVFIYDYWGQGSQVTVSS” is “high polyreactivity”; for “QVQLVESGGCLVQAGGSLRLSCADSGIIYYYYAMGWYRQAPGKERELVAAISTSGGRTYYADSVKGRFTISRDNAKNTVYLQMNSLKPEDTAVYYCAADYLKGEEDYWGQGTQVSVSS” it is “low polyreactivity”.
In the case of “QVQLVESGGCLVQAGGSLRLSCASSGNIFTIYTMGWYRQAPGKERELVASIYRGGTTYYADSVKGRFTISRDNAKNTVYLQMNSLKPEDTAVYYCAVYSPRLRRVHTRGYWGQGTQVTVSS”, the “polyreactivity (PSR sort gate)” value was “high polyreactivity”.
The entry for “QVQLVESGGCLVQAGGSLRLSCASSGRIFRGYAMGWSRQAPGKERELVAVISYSGTRTYYADSVKGRFTNSRDIAKNTVYLQMNSLKPEETAVYYCNARANGFKDGYWGQGTQVTVSA” is “high polyreactivity”.
The entry for “QVQLVESGGCLVQAGGSLRLSCDASGSTFLTNTMGWYRQPPGKERELVAAISSGDSTYYADSVKGRFTISRDNAKNTVYLQMNSLKPEVTAVYYCARDVGWRNVPRDYWGQGTQVTVSS” is “low polyreactivity”; for “QVQLVESGGCLVQAGGSLRLSCPASGFTLPANGMGWYRQAPGKERELVAAISFIAGSTYYADSVKGRFTISRDNAKNTVYLQMNSLKPEDTEVYYCATQFPPSTIYDYWGQGSQVTVSS” it is “low polyreactivity”; for “QVQLVESGGCLVQAGGSLRLSGAASGRTQVPYAMGWSRQAHGNERELVASISSGGSTNYADSVKGRFTISRDNAKNTVYLQMNSLKPEDTAVYYCNAEPIGSEVDYWGQGTQVTVAS” it is “low polyreactivity”.
In the case of “QVQLVESGGCLVQAGGSLRLSWAASGRTLGGYALGWYRQAPGKERELVAAINRSGTRTYYADSVKGRFTISRDKAKNTVYLQFNSLKPEDTAVYYCAASWYPGSRNYDYGGQGTQVTVSS” it was “high polyreactivity”.
Take “QVQLVESGGCLVQAGGSLRLTCAASGRIFDLYTMGWYRQATGIERELVAGIYGNGDGTYADSVKGLFTISRDNAKNPVYLQMNSLKPEDTAVYYCAADGIYIYHPYTRFDYCGQGTQVTVSS”: the “polyreactivity (PSR sort gate)” value is given as “low polyreactivity”.
In the case of “QVQLVESGGCLVQAGGSLRLTCAASGRIFRGNVMGWYRQAPGKERELVAAISGRGGNTYYADSVKGRFTISRDNAKNTVYLQMNSLKPEDTAVYYCAATRKDDYQYGYWGQGTQVTVSS” it was “high polyreactivity”; in that of “QVQLVESGGCLVQAGGSLRLTCAASGSTFDRKARGWYRQAPGKERELVAAITKSGGSTYYADSVKGRFTISRDNAKNTVYLQMNSLKPEDTAVYYCKEFYRAVYPYYYWGQGTQVTVSS”, “low polyreactivity”; in that of “QVQLVESGGCLVQAGGSLRLTCAASGSTFGYEGRGWYRQAPGKERELVASIDSRCDSTYADSVKGRFTISRDNAKNTVYLQMNSLKPEDTAVYYCAADSWYTWFDSWGQGTQVTVSS”, “low polyreactivity”.
Consider “QVQLVESGGCLVQAGGSLSLSCAASGSTFPYPYTIGWYRQAPGKERELVAVISRTGGSTFYADSVKGRFTISRDNAKNTVFLQINSLKPEDTAVYYCARQRYEYRTTYYYWGLGTQVTVSS”, for which the “polyreactivity (PSR sort gate)” value was “high polyreactivity”.
In the case of “QVQLVESGGCLVQAGGTLRLSCAASGFIFYHNAMGWYRQAPGKERELVAAISGSGGSTHYADSVKGRFTISRDNAKNSVYLQMNSLKPEDTAVYYCARRFWFHYYGYDYWGQGSQVTVSS” it was “high polyreactivity”; in that of “QVQLVESGGCLVQAGGTLRLSCAASGRTFIVYSMGWYRPAPGKERELVAAITTSVGRTYYADSVKGRFTISRDNAKNTVFLQMISLKPEDTAVYYCADDLLDGYSEYSYWGQGTQVTVSS”, “low polyreactivity”.
The entry for “QVQLVESGGCLVQAGRSHRLSCAASGRIFYGYALGWYRQAPGKERELVAAITRSSSTYYADSVKGRFTISRDNAKNTVYLQMNSLKPEDTAVYYCNAYSWYGYDYWGQGTQVTVSS” is “high polyreactivity”; for “QVQLVESGGCLVQAGRSLRLRCAASARTIGSNAMGCYRQAPGKARELVDAISSRGGSTYYADSVKGRITISRDNAKNTVYLQMNSLYPEDTAVYYCDSEYYPHTTYLSDNWGQGTQETVSS” it is “high polyreactivity”.
The entry for “QVQLVESGGCLVQARGSLRLSCASSGSTFGRNAMGWYRQAPGKERELVASISRRGGSTYYADSVKGRFTISRDNAKNTVYLQMNSLKPEDTAVYYCNRVQFSPVYRFREYDYWGQGTQVTVSS” is “high polyreactivity”; for “QVQLVESGGDLVQAGGSLRLSCAASGITFYVNTMGSYRPAPGKERELVAAIDWTDGGTYYADSVKGRFTISRDNAKNTVYLQMNSLKPEDTAVYYCAREYYWDIKGLYGYLAYDLDYWGQGSQVTVSS” it is “low polyreactivity”; for “QVQLVESGGGFDQAGGSLRLSCAASGSIFSGYAMGWYRQAPGKETELVAAINWSGGRTYYADSVKGRFTISRDNEKNTVYLQMKSLKPEDTAVYYCAAAGARSIYRMDYWGQGTQVTVSS” it is “high polyreactivity”.
In the case of “QVQLVESGGGFFQAGGSLRLSCAASGSTFVYNAMGWYRQAPGKERELVAAISRNGGRTYYADSVKGRFTISRDNAKNTVYFQMNSLKPEDTAVYYCAADYRVQLRKEYDYWGQGTQVTVSS”, the “polyreactivity (PSR sort gate)” value is on record as “high polyreactivity”.
The entry for “QVQLVESGGGFVQAGGSLGLSCAASGSIFFVYAMGWYRQAPGKERELVADSTNGGDRNYADSVKGRFTISREHAKNTVYLQMHSLKPEDTAVYDCNARYYGYRSWLEAYNRGDYWGQATQVTVSS” is “high polyreactivity”.
